Measurements as given in article PMC3246455, “Degradation of Pheromone and Plant Volatile Components by a Same Odorant-Degrading Enzyme in the Cotton Leafworm, Spodoptera littoralis” (PLoS ONE, 2011).

Experiments:
Format in all cases: biochemical, Spodoptera littoralis
[1] = substrate: CC/C=C\CCOC(C)=O; test: GC of the released alcohol, as in an earlier paper; details: incubation and analyses as in ref 12; one-site fit
[2] = substrate: C/C=C/C/C=C\CCCCCCCCOC(C)=O; test: GC of the released alcohol, nonlinear fit; details: 5 min incubation, one-site fit, buffer and temperature not restated for kinetics (1 h assay: 20 mM Tris pH 7.4, 28°C)
[3] = substrate: CC/C=C/C=C\CCCCCCCCOC(C)=O; test: GC of the released alcohol, nonlinear fit; details: 5 min incubation, one-site fit, buffer and temperature not restated for kinetics (1 h assay: 20 mM Tris pH 7.4, 28°C)

B1: SlCXE7 (Spodoptera littoralis) (protein)
chain: DDEWREVKTAQGPVRGRKHPTEDIYTFYNIPYATAPVGVDRFKAPLPPPVWLQPYDAVEKPVVCPQPVFPFPELQLNKLVKQENCLIANVFVPNTNKKNLSVVVYVHGGAFIMGWGDMFRATQLMNKKDIIVVTFNYRLGVHGFLCLGTEDAPGNAGMKDQVALLRWVQKNIGSFNGNPDDVTIIGFSAGSASVDLLMLSKSAEGLFHRVVPESGGNLAAFAIQRDPVEIAKTYARQLNFTNVDDIYALGEFYKTAPLELLTSDPFFDRTDSTFLFSPCVERNMGQETFLTESPLTILKNGNYKKLPVLYGFAEMEGLLRVDFFPFWKQKMSDKFSDFLPADLTFKYEEEREEVANKVKRFYFGDEPVSEDNILQYVNFFSDVLFMHPMLWATKLHVEAGNNQIYLYELSFVAEEVPEVPHTNIKGVTQCGQSLAVLDGKNLTHKSHSEESLATPEYQKMKKTMREIWYNFIKKGKPVPEGSTRPAWPFAGADRSPHMSLGQKIEPRGVLLEKRTVLWDDINQRYFREPVPPPTPPPKSHAEK
notes: complete ORF amplified from male antennal cDNA, C-terminal V5/6His tag (tag kept), secreted from baculovirus-infected Sf21 cells, Ni-NTA purified from supernatant
- Km [1]: 1600 ± 700 µM
- kcat [1]: 36 s⁻¹
- Km [2]: 42.6 ± 13.3 µM
- kcat [2]: ~0.4 s⁻¹
- Km [3]: 56.6 ± 18.5 µM
- kcat [3]: ~0.4 s⁻¹
